assay: soluble on expression in E. coli; label from the status in PepcDB or PDB records

Sequence | soluble on expression in E. coli
MPRSTWFKALLLLVALWAPLSQAETGWQPIQETIRKSDKDNRQYQAIRLDNGMVVLLVSDPQAVKSLSALVVPVGSLEDPEAYQGLAHYLEHMSLMGSKKYPQADSLAEYLKMHGGSHNASTAPYRTAFYLEVENDALPGAVDRLADAIAEPLLDKKYAERERNAVNAELTMARTRDGMRMAQVSAETINPAHPGSKFSGGNLETLSDKPGNPVQQALKDFHEKYYSANLMKAVIYSNKPLPELAKMAADTFGRVPNKESKKPEITVPVVTDAQKGIIIHYVPALPRKVLRVEFRIDNNSAKFRSKTDELITYLIGNRSPGTLSDWLQKQGLVEGISANSDPIVNGNSGVLAISASLTDKGLANRDQVVAAIFSYLNLLREKGIDKQYFDELANVLDIDFRYPSITRDMDYVEWLADTMIRVPVEHTLDAVNIADRYDAKAVKERLAMMTPQNARIWYISPKEPHNKTAYFVDAPYQVDKISAQTFADWQKKAADIALSLPELNPYIPDDFSLIKSEKKYDHPELIVDESNLRVVYAPSRYFASEPKADVSLILRNPKAMDSARNQVMFALNDYLAGLALDQLSNQASVGGISFSTNANNGLMVNANGYTQRLPQLFQALLEGYFSYTATEDQLEQAKSWYNQMMDSAEKGKAFEQAIMPAQMLSQVPYFSRDERRKILPSITLKEVLAYRDALKSGARPEFMVIGNMTEAQATTLARDVQKQLGADGSEWCRNKDVVVDKKQSVIFEKAGNSTDSALAAVFVPTGYDEYTSSAYSSLLGQIVQPWFYNQLRTEEQLGYAVFAFPMSVGRQWGMGFLLQSNDKQPSFLWERYKAFFPTAEAKLRAMKPDEFAQIQQAVITQMLQAPQTLGEEASKLSKDFDRGNMRFDSRDKIVAQIKLLTPQKLADFFHQAVVEPQGMAILSQISGSQNGKAEYVHPEGWKVWENVSALQQTMPLMSEKNE | soluble
QEGTSPMQKETRFLPGTNVEYEDYSTFFDKFSASGGFVLFNSNRKKYTIYNRKESTSRFAPASTYKVFSALLALESGIITKNDSHMTWDGTQYPYKEWNQDQDLFSAMSSSTTWYFQKLDRQIGEDHLRHYLKSIHYGNEDFSVPADYWLDGSLQISPLEQVNILKKFYDNEFDFKQSNIETVKDSIRLEESNGRVLSGKTGTSVINGELHAGWFIGYVETADNTFFFAVHIQGEKRAAGSSAAEIALSILDKKGIYPSVSR | soluble
MLRRKPTRLELKLDDTEEFESVKKELESRKKQRDEVDVVGVATSSEMSGAAGGTADGKTREQMIHERIGYKPHPKPNTLPSLFGNLQF | soluble
MNVSIKNTDAVNAIATVAIEKADYANEVEKALRTYRQRANVPGFRKGMVPMGMIKKMYGKGVKAEEINRVVGRELYRYIAENKLNVLGEPMPNEELQKEYDFDTTDDFEFVFDLALSPVVDVVVDKSIRVPYYTIQPTEEMIDRQIESMRSSYGHSVEADEVTANDVVKGRLCELEDGQPKEGGICVEEAMLLPAYMKDEEEKNKFVGAAKNSVVVFNPSKAYNNNEYELSSLLKVDKSAIGEHTGDFSFEISSISRHEKAELNEEFFKQAFGEETDIKNEADLRVKVTEGVREQFTAESDYKFLIDLRRELEAQVGELQFPDALLKRWLKLSHTEWSDEELEKQYPAMIKDLTFHVIKEDLVKKNDIVVTPQEVRNFAIIVAKNQFAQYGMSAVPQDALERYANTMMEKEDARRNFFDRVTENKLAAALKEKLDIDAKTVSPDEFNKLMTEQPASAE | not soluble
MRHISIFGTSSDAGKSTLTFVIAKILQRAGIRVAPFKAQNVSNNARVCDDGSEIAIAQSFQAEVLAIPTSYHLNPILLKSGINGQASVIVEGQVISQQDVLEYYRDLDTLKPAVQRCFETLAKMYDCIVAEGAGSPVELNLMDKDLSNIFIAKHYQTKIILVADIEKGGVFASVWGTYNLLPADLRSNVIGVIINKFRGDLSLFDEGIRIIEQAFKIPVLGVLPYMPFNLGFEDNASLQNFVQQPRQKKLKIGVIAYPYMSNYNDFEPLIADDEVLLEFINSPISLEHFDGVILPGSKLVIEDLHWLKTNGLFEQLQQRRKPIFAICGGYEMLFEQLHDPERIENLEPTTATGLGLIDDEIYFAKNKILNKAEYPIFGLNIAGFEMHHGISQKYPLYFQKDNIQGTFIHQVFDHNAFRTQYLRAICAQYQGFDFQLYKTEQINNFIEACRKRLNVKLILEAIQDQ | not soluble
MVAKKWVYYFGGGNADGNKNMKELLGGKGANLAEMVNLGIPVPPGFTITTEACKTYQETETIPQEVADQVRENVSRVEKEMGAKFGDPANPLLFSVRSGAAASMPGMMDTVLNLGLNKVTVDAWVRRAPRLERFVYDSYRRFITMYADIVMQVGREDFEEALSRMKERRGTKFDTDLTASDLKELCDGYLELFELKTGCSFPQDPVMQLFAAIKAVFRSWGNPRATIYRRMNNITGLLGTAVNVQAMVFGNINDRSATGVAFSRSPSTGENFFFGEYLVNAQGEDVVAGIRTPQQINHSLSLRWAKAHGVGEEERRKRYPSMEEAMPENYRLLCDVRKRLENHYRDMQDLEFTVQDGRLWLLQCRNGKRTIHAAVRIAIDMVNEGLISREEAVLRIDPYQVDHLMHPNLEPGAEKANKPIGRGLAASPGAAVGQVVFDAESAKEWSGRGKKVIMVRLETSPEDLAGMDAACGILTARGGMTSHAAVVARGMGKCCVSGCGDMVIRGKSFKLNGSVFREGDYITIDGSKGLIYAGKLKLRSPDLKGSFQTILQWCQEMKRLGVRTNADTPADAAKARSFGAEGVGLCRTEHMFFEGSRINFIREMILADSASGRKAALDKLLPIQRADFVGILRAMRGLPVTIRLLDPPLHEFVPHDAAAQFELAQKLGMPAEKVRNRVNALHELNPMLGHRGCRLGITYPEIYNMQVRAIIEAAIAVSEEGSSVIPEIMVPLVGKKEELSLIREEVVKTAEAVITKSGKRVHYTVGTMIEVPRAAVTADSIAQKADFFSFGTNDLTQMGCGFSRDDAGPFLRHYGNLGIYAQDPFQSIDQEGIGELVRIAVTKGRRVKPMLKMGICGEHGGDPATIGFCHKVGLDYVSCSPFRVPVAIVAAAHASIKDRRAAMKARKGFAAKL | soluble
MTQLATICYIDNGDSLLLLHRNKKENDVHKGKWISVGGKLEAGETPDECARREILEETHLTVTEMAFKGIITFPEFTPGHDWYTYVFKVTGFEGDLISDEESREGTLEWVPYDQVLEKPTWEGDYDIFKWILEDRSFFSAKFTYDQNNQLMDKSVTFY | not soluble
MSSNAQVRPPLPPFTRESAIEKIRLAEDGWNSRDPERVSLAYTLDTQWRNRAEFAHNREEAKAFLTRKWAKELDYRLIKELWAFTDNRIAVRYAYEWHDDSGNWFRSYGNENWEFDEQGLMARRFACINDMPIKAQERKFHWPLGRRPDDHPGLSELGLLEHHHHHH | soluble
MGSDKIHHHHHHMIFTMKATKILICILCCTWICSCSLLEVDPVSTITSQSFWKTPGDAKAYLTGIYNKVRSLNNTSYYGEDRGDAFKAGEIGPTSVAWAHTLLESNAPSYRSAYNIIHHANLLFNKIESLKFTNETEKNRIKAECHFLRAYTYFLIVRIWGDAPIITDPVLSDNVELKPRSPKEDVMKLILEDIEQSVLLFPEDGYINKNLASKPAAYALKADVLMWKAKVLNGGNADLEEAIKAIDQVGGSGVSLLPDYAKVFANDNKKNNEIIFSFYFERYETGNLSIATNTTSRTDNLSMAVNLADAATSPNQSRHVYAPSDKARELYLKYPGDRRYKVAMIDLVDKDGNLILTQTNKFRGKAYSDDRYFDDDLIAYRWGDLLLLRAEANAALNKISESLVDLNEVRDRAGLEPYDGPKDKIAVEKEICDERLRELFIEQKRWFDLVRFHCGGTIDIYKEVPNLNDKPGYPLYFPINYNDMVLNDKLVQTDGYESNVER | not soluble
TIVDLEDNVLVIGFGRFSQIVCQTLLIRGISVSVIDRNIENIRAAAKFGFKVYYGDGIRLDVLRAAGIEKAKCVVLGINDTQRIEHIVSQMKEAYPNLPILTRTYDRKTTVSLIKQDVDFIVRETFESAITLSRATLMKLGID | not soluble
MGSDKIHHHHHHMSSMSARNPFRPTFGVSPTVLAGRDSLLQSFKLGLAEGPGSPFRALLISGSRGMGKTVLLNEFEDAAASQGWITLRAYPDNSMVDGLVNSAIPEALQNLDGPQSKRMLSGVAIPGIATVTAIADPTKKDPTPTLISRLRELATRLQKHGSGILITLDELQSANVDLLHVLATAVQDLLRDDFDIALVAAGLPEGIDRLLQHEGTTFIRRAERILLNPVNHEDSVEMFLYTAAYGYRHMTSEAAELAAQISKGYPYSMQLTGSLAWARSTLDNSDTIQAEQVDAVRDEVVRRMGMQVHEPSLHQVPDGELTILYAIAQLSKNGEMVSTGDIAHLMGVKPNALSMQRKQLLSRGLVEVPKYGFLNFTLPYMREHLLNSPHHRPIT | not soluble
MQANSEEYCELCGSQIRGKGITVSYEGSIITVCNSCYDRIRKHAVIVKADSKKSETRKKATLKPPKMENAELEIVTDYYKIIKTAREQLGISQQQLAQKLKVSENIVKRFESGKLKPTISQARQLEKILGIKLVTPLENNEESEKEFDDTGLTLGDVVNIKEGKK | not soluble
MGLVQTNDQQLFIGVDGGGSKCRATIYTADGTVLGTGVAGRANPLHGLAQTFESIEASAHQALLDAGMKATDSHLLVAGLGLAGVNVPRLYQDVVNWQHPFAAMYVTTDLHTACIGAHRGADGAVIITGTGSCGYAHVGDASLSIGGHGFALGDKGSGAWLGLKAAEHVLLALDGFATPTALTEMLLSHLGVKDALGIVEHLAGKSSSCYAQLARNVLDCANAGDQVAIAIVQEGADYISEMARKLFMLNPVRFSMIGGLAEPLQAWLGSDVVAKISETLAPPELGAMYYAQQQFNSATVLEHHHHHH | soluble
MDKRYLESDVFEAFQERLSYLFNEFDYIYVSFSGGKDSGLLLNLVLDYKRKNNISSKIGVFHQDFEAQYSLTTEYVEKVFEDNIEDIEPYWVCLPMATRTAVGNYEMYWYPWDDEKEELWVREMPVKEYIINQKNNPFTYYKYKMRQESLAKQFGRWIRDIHEGAKVVCLLGTRAAESLQRYCSIVNKQHGYKGKCWITKEFKNVWTASPIYDWEIEDIWLAHYKFDYDYNKIYDLFYK | not soluble
GPLGSEVMGPVEAAPEYRVIVDANNLTVEIENELNIIHKFIRDKYSKRFPELESLVPNALDYIRTVKELGNSLDKCKNNENLQQILTNATIMVVSVTASTTQGQQLSEEELERLEEACDMALELNASKHRIYEYVESRMSFIAPNLSIIIGASTAAKIMGVAGGLTNLSKMPACNIMLLGAQRKTLSGFSSTSVLPHTGYIYHSDIVQSLPPDLRRKAARLVAAKCTLAARVDSFHESTEGKVGYELKDEIERKFDKWQE | soluble
MGSDKIHHHHHHMSNLKPDSVIACLDCPNHVQAVLEASMWASIRLQAPIGLLYSVPSLQQKAAVDYSGCLNIDDENTLLDQFTAKEHLSNCELKAQGKRLLHQASSYCEQQRHKIKTYTLHRHEKLDESINYVDDQAQLIVIGHHVTCKSTLSQLIRSSHCPILVTHAPFLPPTSALFAFDNSPTSHKMLNWLCKTPLVRALMIHIVMVSKENSENCDALREAYARLKQAGIKCKKTLLDCRDVTSALTYYQHDNDIGLLMTGAFAQPRLIELLKGSDTKKLLGSTTTPYLLFPKA | not soluble
MESKLNLDFNLVEKARAKAKAIAIDTQEFIEKHTTVTVERAVCRLLGIDGVDTDEVPLPNIVVDHIKENNGLNLGAAMYIANAVLNTGKTPQEIAQAISAGELDLTKLPMKDLFEVKTKALSMAKETVEKIKNNRSIRESRFEEYGDKSGPLLYVIVATGNIYEDITQAVAAAKQGADVIAVIRTTGQSLLDYVPYGATTEGFGGTYATQENFRLMREALDKVGAEVGKYIRLCNYCSGLCMPEIAAMGAIERLDVMLNDALYGILFRDINMQRTMIDQNFSRIINGFAGVIINTGEDNYLTTADAFEEAHTVLASQFINEQFALLAGLPEEQMGLGHAFEMDPELKNGFLYELSQAQMAREIFPKAPLKYMPPTKFMTGNIFKGHIQDALFNMVTIMTNQRIHLLGMLTEALHTPFMSDRALSIENAQYIFNNMESISEEIQFKEDGLIQKRAGFVLEKANELLEEIEQLGLFDTLEKGIFGGVKRPKDGGKGLNGVVSKDENYYNPFVELMLNK | soluble

Source: the DeepSol protein solubility set
